This is an account of results in publication PMC5897352, “Isolation and characterization of a multifunctional flavonoid glycosyltransferase from Ornithogalum caudatum with glycosidase activity” (Scientific Reports, 2018).

In general, Km refers to the substrate concentration at which the rate is half of its maximum.

Substrate in series [1]: O=[N+]([O-])c1ccccc1O[C@@H]1O[C@H](CO)[C@H](O)[C@H](O)[C@H]1O
As to the kind of experiment: HPLC hydrolysis assay (o-nitrophenol release), Lineweaver-Burk. The following applies: no UDP or UDP-sugar, phosphate buffer (pH 6.0 in methods, optimum pH 7), 37 °C. Type of series: biochemical, Albuca bracteata.

Substrate in series [2]: O=c1cc(-c2ccccc2)oc2cc(O)cc(O)c12
As to the kind of experiment: HPLC glucosylation assay, Lineweaver-Burk. Type of series: biochemical, Albuca bracteata. The following applies: 1 mM UDP-Glc fixed, phosphate buffer pH 8.0, 50 °C, apparent Km.

B1: OcUGT1 (Albuca bracteata) (protein)
chain: MGSEAHGALHILFFPLMAPGHMLPMVDMAKLFAARGLKPTIFTTPGNVRLIQPSIDNANGSGHQNPIQLFTVPFPSIDGIPDGCENLSSVTQELHVKFFVGLGNLREPFKDSLARLRPDCIVSDMFLPWTADEAAERGMPRLVFHGSNFFTQCAYRSIEHHKVLESLAPGEDTFVIPGLPHRVELRRSTMPDIQTFAPELMDIILQTREAELKSLGTVMNTFYELEPDYADHFCNVMGRRAWNIGPLSLCNKDVADKWRRGNEASITSEFCLNWLDSQEPSSVVYVCFGSLSDFTTAQLREIAAGLEASGRPFVWVVRNHSEEWIPEGLEERVGGKGLIIRGWAPQILILSHVAVGGFLTHCGWNSILEGVSAGLPFVTWPLFADQFYNERLIVDVLKIGVAVGSNEYANKPEERKIIEAAKIEATINELMGDGKDADERREKARALGELAQRAVEKGGSSYRDLDNLISELVEKRSAV
notes: full-length ORF of 1440 bp (479 residues by ORF length)
As to B1, the Km in series [1] turned out to be 6.897 ± 1.995 mM; in series [2], 0.1506 ± 0.0139 mM.
